# According to the nanobody polyreactivity screen of Harvey et al. (2022):
# Assay: yeast display, Sf9 membrane polyspecificity reagent, FACS + sequencing; frameworks hold sequencing errors
# Outline: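 A nanobody's polyreactivity label depends on the gate it was sorted from. Yeast display cells were stained with 10% biotinylated, detergent-solubilized Sf9 membrane reagent for 1 hour at 4 °C, enriched on streptavidin microbeads and sorted by FACS. The low and high (top ~1%) gates were set on anti-HA fluorescence for expression and streptavidin fluorescence for reagent binding.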
row,Sequence,polyreactivity (PSR sort gate)
1,QVQLVESGVGLVQAGGSLRLSCAASGFLIRYYAMGWYRQAPGKERELVASIDWSGGNTYYADSVKGRFTSSRDKAKITVYFQMNSLKPEDTAVYSCNRRGMDWGQGTQVNVSS,low polyreactivity
2,QVQLVESGGGLVQAGGSLRLSCAASGSIFGFYAKGWSRQAPGKEWELVAAITSGDSTHYADSVKGRFTISRDNAKNTVYLQMKSLKPEDTAVNYCAASAPYRYYRSAYSYWGLGTQVTVSS,low polyreactivity
3,QVQLVESGGGLVQAGGSLRLSCAASGSTFGFYAMGWYRQAPGKERELVAAISSSGSTYYADSVKGRFTISRDNAKNTVYLQMISLKPEDTAVYYCAAQPGYYDYDYWGQGTQVTVSS,low polyreactivity
4,QVQLVESGGGLVQAGGSLRLSCASSGRTFRYYTMGWYRQAPGKEREFVAAISSTGGTYYADSVKGRFTISRDNAKNTVYFQMNSLIPVDTAVYYCAATFIKVVVNVQLYDYDYWGQGTQVTVSS,low polyreactivity
5,QVQLLETGGGLVQAGGSLRLSCAASGSTFTIYAMGLYRQAPGKEMELVAVITRGSTNYADSVKGRFTISRDNAKNTVYLQMYSLKPEDSAVYYCNARRYGKVVRSRYNYWGQGTQVTVSS,high polyreactivity
6,QVQLVESGGGLVQAGGSLRLSCAASGSIFTPYAMGWYRQAPGKERELVAAITSGGSTYADSVKGRFTISRDNAKNTVYLQMNSLKPEDTAVYYCAADRSYVYAGADMYYWGQGTQVTVSS,low polyreactivity
7,QVQLVESGGGLVQAGGSLRLSCAASGRTFVYYAMGWYRQAPGKERELVAAISGSGGSTYYADSVKGRFTISRDNAKNTVYLQMNSLKPEDTAVYYCNVRGPGFYWNWGQSHYYGYDYWGQGTQVTVSS,high polyreactivity
8,QVQHVESGGGLVQAGGSLRLSCAASGSTFGYNDMGRYRQAPGKERELVAAIDTGVSTNYADSVKGRFTISRDNAKNTVYLQMNSLKPEDTAVYYCAKSGSAYWHSGWSVGFDYWGQGTQVTVSS,low polyreactivity
9,QVQLVESGGGLVQAGGSLRLSCAASGITFGKNAMVWYRQAPGKEREFDAAISWGGGRTYYADSVKGRFTISRDNAKNTVYLQMNSLKPEDTAVYYCNVGPRAGWYRSNYDYWGQGTQVTVSS,low polyreactivity
10,QLQLVESAGGLVQAGGSLRLRCAASGSTFSSYAMGWYRQAPWKERELVADITSSGGSTYYADSVKGRFTISRDNAKNSVYLQMNSLTPEDTAVYYCAADDVIFWLYYYWGQGTQVTVSS,low polyreactivity
11,QVQLVESGGGLVQAGGSLRLSCAASGFTFYLYTMGWYLQAPGKERELVATITSDGGTNYADSVKGRFTISRDNAKNTVYLQMNSLKPEDTAVYYCNAASRRGSRKQAKYDYWGQGTQVTVSS,low polyreactivity
12,QVQLVESGAGLVQAGGRLRLSCAASGFTFYYNAMGWYRQAPGKEREFVAAISRSAGSTTYADSVKGRFTISRDNAKNTVYLQMNSLKPEDTAVYYCNARRSRGKSYDYWGQGTQVTVSS,high polyreactivity
13,QVQLVESGRGLVQAGGSLRLSCAASGRIFSIYAMGWYRQAPGKERELVAAITRGGRTNYADSVKGRFTISRDNAKNTVYLQMNSLKPEDTAVYYCAARRIDGVVKPYDYWGQGTQVTVSS,low polyreactivity
14,QVQLVESGGGLVQAGGSLRLSCAASGSIFGGYAMGWYRQAPGKEREFVAAISRRGASTYYADSVKGRFTISRDNAKNTVYLQMNSLKPEDTAVYYCNARAYGRIDGHSATYGYWGQGTQVTVSS,high polyreactivity
15,QVQSVESAGVLVQAGGSLRLSCAASGFTFTWYAMGWYRKAPGKERELVATISRSGGRTYYADSVKGRFTISRDNAKNTVYLQMNSLKPEDTAVYYCAADTRNSPRYDYWGQGTQVTVSS,high polyreactivity
16,QVQLVESGGGLVQAGGSLRLSCAASGFTFAYYAMGWYRPAPGKERELVAAITSGGRTNYADSVKGRFTISRDNAKNTVYLQMNSMKPEDTAVYYFAKGYRRVYGPLYYWGQGTQVTVSS,low polyreactivity
17,QVQLVDSGGGLVQAGGSLRLSCAASGRTFYAYAMGWYRQAPGKERELVATISSSDASTYYADSVKGRFTISRDNAKKTVYLLMNSLKPEDTAVYYGNADFVRPSWARGRNNGLYYWGQGTQVTVSS,low polyreactivity
18,QVQLVESGGGLVQAGGSLRLSCAASGSTFRIYAMRSYRQAPGKERELGARISWNGGRTYYADSVKGRFTISRVNAKNTVYLQMNSLKPEDTAGYYCNALVPPGYDYWGQGTQVSVSS,high polyreactivity
19,QVQLVESGGGLVQAGGSLRLSCAGSGFILGYNAMGWYRQAPGKERELVAVIDSIGDGTYYADSVKGRFTISRDNAKNTVYLQMISLKPEDTAVYYCDVDDYYEMDYWGQGTQVTVSS,low polyreactivity
20,QVQLVESGGGLVQAGGSLRLSCAASGSILRKYAMGWYRQAPGKERELVAAISGSGGRTHYADSVKGRFTISRDNAKNTVYLQMNSLKPEDTAVYYCARRIKLGQRQGGYYWGQGTQVTVSS,high polyreactivity
21,QVQLVESGGGLVQSGGSLRLSCAASGSTLYFKAMGWYRQAPGKERDLVAAITYDGGSTYYADSVKGRFTISRDNAKNTVYLQMNSLKPEDTAVYYCAGRTDGYRNNYWGQGTQVTVSS,high polyreactivity
22,QVQLVESGGGLVQAGGTLRLSCAASGSIFYYYAMGWYRQAPGKERELVDTISSSSGSTYYADSVKGRFTISRDNAKNTVYLQMISLKPEDTAVYYCAAPLPHRGYYEGYWGQRTQVTVSS,low polyreactivity

row,Sequence,polyreactivity (PSR sort gate)
1,QVQLVESGGGLVQAGGSLRLSCAASGLTFVEYAMAWYRQAPGKERELVAAITSTDGTNYADSVKGRFTISRDNAKNTVYIQMNSLKPADTAVYYCFTLAQDFYFWYYYWGQGTQVTVSS,high polyreactivity
2,QVQLVESGGGLVQAGGSLRLSCAASGFIFRSYAMGWYRQAPGKERELVAAISFSGGRTYYADSVKGRFTISRDNAKNTVYLQMNSLKPEDTAVYYCAAVPARIGVVLHIYTDSHYDYWGQGTQVTVSS,low polyreactivity
3,QVQLVESGGGLVQAGGSLRLSCAASGITLAYNVMGWYRQAPGKERELVAGITRSGGSTYYADSVKGRFTISRDNAKNTVYLQMNSLKPEDTAVYYCAAGFTYLNYTPWYRFNYWGQGTQVTVSS,high polyreactivity
4,QDQLVESGGGLVQAGGSLRLSCAASGSIFERYTMGWSRQAPGKERELVAAITTNGGSTYADSVKGRFTISRDNAKNTVYLQMNTLKPEDTADYYCNVDVYLYAKEYDYWGQGTQVTVSS,high polyreactivity
5,QVQLVETGGGLVQAGGSLRLSCAPSGSIFGLNAMGWYRQAPGKERELVAAINTDGDTYYADSVKGRFTISRDNAKNTVYLQMNSLIPEDTAVFYCAADYYWDPFDSNFGHVPQEYESWGQGTQVTVSS,low polyreactivity
6,QVQLVESGGGLVQAGGSLRLSCAASGSIFQLNAMGWYRQAPGKERELDAAITSGGSTYYADSVKGRFTISRDNAKNTVYLQMNSLKPEDTAVYYCAAYYLYTTPTSEWLSGYDYWGQGTQVTVSS,low polyreactivity
7,QVQLVESGGGLVQAGGSLRLSCAASGGTFRLYAMGWYRQAPGKDRELVAAITGVGSTNYADSVKGRFTISRDNAKNTVYLQMNSLKPEDTAVYYCAAYYWSQVLIQGYYSWGQGTQVTVSS,high polyreactivity
8,QVQLVESGGGLVQAGVSLRLSCADSGFTFDGYAMGWYRQAPGKERELVAAISDSGDSTYYADSVKGRFTISRDNAKNTVYLHMNSLKPEDTAVYYCAAGLGYYWSDYFAYDYWGQGTQVTVSS,low polyreactivity
9,QVQLVESGGGLVQAGGSLRLSCAASGRTFTTYAMGWYRQAPGKERELVAAISDTGGITYYADSVKGRFTISRDNAKNTVYLQMNSLKPEDTAVYYCNAESYRAPYDYWGQCTQVTVSS,low polyreactivity
10,QVQLVESGGGLVQAGGSLRLSCAASGIIFQIYAKGWYRQAPGKERELVAAISGGGNTDYADSVKGRFTISRDNAKNTVYLQMNSLKPEDTAVYYCAADFVDWVWSRYGLFEHDYWGQGTQVTVSS,low polyreactivity
11,QVQHVESGGGLVQAGGSLRLICAASGYIFRGYVMGWYRQAPGKERELVAAITSRGDSTYYADSVKGRFTISRDNAKNTVYLPMNSLKPEDTAVYYCAARGGVLKGYYYWGQGTQVTVSS,high polyreactivity
12,QVQLVESGGGLVQAGGSLRLSCAASGFTFAGYAMGWYRQAPGKERELVAAINRGGSTYYADSVKGRFTISRDNAKNTVYLQMNSLKPEDTAVYYCAKAQRFYGGRMGYWGQGTQVTVST,low polyreactivity
13,QVQLVETGGGLVQAGGSLRLSFAASGIISYHNAMGWYRQAPGKERELLAGITYSGGSTYYEDSVKGRFTISRVNAKNTVYLQMNSMKPEDTAVYFCAARVVYWTWSCLSKMDYWGQGTQVTVSS,high polyreactivity
14,QVQLVESGGGLVQAGGSLRLSCAASGSIFNLYAMGWYRQAPGKERELVAAISRSGGSTYYADSVKGRFTISRDNAKNTVYLQMNSLKPEDTAVYYCAARYNWRYDIFDYWGQGTQVTVSS,high polyreactivity
15,QVQLVESGGGLVQAGGSLRLSCAASGLTLRNYAKGWYREAPGKDRELVAAITTGGGRTFYADSVKGRFTISRDKAKNTVYLETNSLNPEDTAVYYCAAERAILSSDKQSLWRFDYWGQGTQVTVSS,low polyreactivity
16,QVQLVESGGGLVQAGGSLRLSCAASGITFRYYAMGWYRQAPGKERELVAVISTSGGSTYYADSVKGRFTISRDNAKNTVYLQMNSLKPEDTAVYYCAVVWPYSERYYYWGQGTQVTVSS,high polyreactivity
17,QVQLQESGGGLVQAGGSLRLSCAASGSISGPHVMGWYRQAPGKEREFVAAINVGANTYYADNVKGRFTISRDNAINTVYLQMNSLKTEDTAVYYCAAVYYGDIGHEYWGQGTQVTVSC,low polyreactivity
18,QVQLVESGGGLVQAGGSLRLSCAASGSTYYYAMGWYIQEPGKEREFVAAISASGGSTYYADSVKGRFTISRDNAKNTVYLQMNSLKPDDTAGYYCTPLGYGYWGQGTQVTVSS,high polyreactivity
19,QVQLVESGGGLVQAGGSLRLSCAASGRIFYFNTMGWYRQAHGKEIELVAAITRNGGSTYYADSVKWRFTISRDNAKNTVYFQMNSLKPEDTAVYYCNARYRAAKRGKAWYRYDYWGQGTQVTVSS,high polyreactivity
20,QVQLVESGGGLVQAGGSLRLSCAASGFIFRYYAMGWYRQAPGKERELVATINSSGGSTYYADSVKGRFTISRDNAKNTVYLQMNSLKPEDTAVYYCYAGYVSYRGQSRYEYWGQGTQVTVSS,high polyreactivity
21,QVQLVESGGGLVQAGGSLRLSCAASGRIFNYYAMGWYRQAPGKARELVAAISGSGGRTYYADSVKGRFTISRDNAKNTVYLQMNSLKPEDTAVYYCAADGVDGYDYWGQGTQVTVSS,high polyreactivity
